{
  "source": "patent US20220073599A1",
  "key": {"[1]": {"target": "human VEGFA-121-His (human) (UniProt P15692)", "sequence (P15692 other isoform, or with tags, fused parts or gaps)": "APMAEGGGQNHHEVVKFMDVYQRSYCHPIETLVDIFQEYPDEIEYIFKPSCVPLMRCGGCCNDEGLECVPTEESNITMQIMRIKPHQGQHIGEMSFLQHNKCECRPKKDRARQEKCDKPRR", "assay": "KinExA equilibrium titration in solution, VEGFA-121"}, "human VEGFA-165 (human)": {"target": "human VEGFA-165 (human) (UniProt P15692)", "sequence (P15692 other isoform, or with tags, fused parts or gaps limits assumed)": "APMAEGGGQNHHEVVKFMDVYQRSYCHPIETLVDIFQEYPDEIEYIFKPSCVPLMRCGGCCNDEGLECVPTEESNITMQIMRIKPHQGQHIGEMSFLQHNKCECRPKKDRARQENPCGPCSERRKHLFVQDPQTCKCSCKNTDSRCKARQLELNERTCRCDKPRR", "assay": "KinExA, VEGFA-165; set-up for VEGFA-165 not described"}},
  "data": [
    {"substance": "Aflibercept-analogue (Fc fusion)", "values": [
      {"measurement": "Kd", "setting": "[1]", "result": 0.2, "unit": "pM"},
      {"measurement": "Kd", "setting": "human VEGFA-165 (human)", "result": 0.1, "unit": "pM"}
    ]}
  ]
}
